Molecular target: T1, LtmA (Ms6479) (Mycobacterium smegmatis mc2155, UniProt A0R6A5 1-189)
T1 sequence: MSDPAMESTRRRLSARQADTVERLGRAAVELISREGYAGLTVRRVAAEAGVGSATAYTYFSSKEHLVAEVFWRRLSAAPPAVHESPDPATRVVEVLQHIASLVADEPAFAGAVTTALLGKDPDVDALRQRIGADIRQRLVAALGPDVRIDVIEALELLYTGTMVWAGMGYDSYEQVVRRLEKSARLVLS
Experiment: EMSA

B1: Ms6484p5 (dsDNA)
DNA 1: CAAACTATAGCAGCTCTCCACCTGACACGGTTTCGGAG
DNA 2: CTCCGAAACCGTGTCAGGTGGAGAGCTGCTATAGTTTG
binding result: no binding

B2: Ms6484p4 (dsDNA)
DNA 1: CTCCGAAACCTCTGGACATGTGTCCAGACTATAGTTTG
DNA 2: CAAACTATAGTCTGGACACATGTCCAGAGGTTTCGGAG
binding result: binds
